Source: patent US20140206609A1 (Sanofi, published 2014)
*1 amine or outer side, *2 acyl side, *3 side chain or, on linkers, in order; H or OH if unused. Where no end group is shown, it is not given here. Side-chain parts run from the residue outwards. [ ]: non-standard residue; d: D form. The star is where a group is joined. γGlu = O=C(O)[C@H](CCC(=O)[*:2])N[*:1]; Stearoyl = CCCCCCCCCCCCCCCCCC(=O)*; Palmitoyl = CCCCCCCCCCCCCCCC(=O)*; Aib = CC(C)(N)C(=O)O; GABA = NCCCC(=O)O

T1: human GIP receptor (human, UniProt P48546 22-466)
T1 sequence (looked up): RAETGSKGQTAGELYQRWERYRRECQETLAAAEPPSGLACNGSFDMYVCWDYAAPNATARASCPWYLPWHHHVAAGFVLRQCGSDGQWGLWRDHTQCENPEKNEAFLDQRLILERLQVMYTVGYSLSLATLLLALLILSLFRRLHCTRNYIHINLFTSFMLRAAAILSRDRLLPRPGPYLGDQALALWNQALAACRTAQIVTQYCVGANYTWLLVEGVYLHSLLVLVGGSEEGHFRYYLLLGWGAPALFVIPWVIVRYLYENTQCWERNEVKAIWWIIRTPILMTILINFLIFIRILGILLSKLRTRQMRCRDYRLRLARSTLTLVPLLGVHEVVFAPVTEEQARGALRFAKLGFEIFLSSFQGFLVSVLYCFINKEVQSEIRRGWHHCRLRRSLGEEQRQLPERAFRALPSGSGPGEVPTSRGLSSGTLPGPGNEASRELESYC


Key:
Test in all cases: cell-based or functional assay
human GLP-1 receptor = human GLP-1 receptor (human, UniProt P43220 24-463)
human GIP receptor = biological target: T1, human GIP receptor
human glucagon receptor = human glucagon receptor (human, UniProt P47871 26-477)
Chain of human glucagon receptor (P47871 26-477): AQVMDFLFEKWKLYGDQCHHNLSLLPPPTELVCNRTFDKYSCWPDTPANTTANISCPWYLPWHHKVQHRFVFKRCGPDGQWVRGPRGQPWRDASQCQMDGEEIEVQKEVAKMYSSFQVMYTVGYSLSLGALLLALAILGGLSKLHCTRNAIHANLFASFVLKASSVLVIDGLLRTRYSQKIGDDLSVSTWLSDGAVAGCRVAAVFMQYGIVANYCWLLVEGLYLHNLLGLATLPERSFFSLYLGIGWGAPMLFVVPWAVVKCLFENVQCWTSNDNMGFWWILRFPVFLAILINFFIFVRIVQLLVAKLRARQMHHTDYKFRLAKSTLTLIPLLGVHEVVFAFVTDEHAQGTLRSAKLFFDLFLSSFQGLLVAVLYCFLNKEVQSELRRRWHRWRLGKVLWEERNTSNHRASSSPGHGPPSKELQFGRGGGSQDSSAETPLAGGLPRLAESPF

Binder	EC50 hGLP-1 R [pM] (human GLP-1 receptor)	EC50 hGIP R [pM] (human GIP receptor)	EC50 hGLUC R [pM] (human glucagon receptor)
Y[Aib]QGTFTSDLSIQK([γGlu-Palmitoyl])DSRAAQDFIEWLKNGGPSSGAPPPS-NH2 (N-terminus assumed; SMILES CCCCCCCCCCCCCCCC(=O)N[C@@H](CCC(=O)NCCCC[C@H](NC(=O)[C@H](CCC(N)=O)NC(=O)[C@@H](NC(=O)[C@H](CO)NC(=O)[C@H](CC(C)C)NC(=O)[C@H](CC(=O)O)NC(=O)[C@H](CO)NC(=O)[C@@H](NC(=O)[C@H](Cc1ccccc1)NC(=O)[C@@H](NC(=O)CNC(=O)[C@H](CCC(N)=O)NC(=O)C(C)(C)NC(=O)[C@@H](N)Cc1ccc(O)cc1)[C@@H](C)O)[C@@H](C)O)[C@@H](C)CC)C(=O)N[C@@H](CC(=O)O)C(=O)N[C@@H](CO)C(=O)N[C@@H](CCCNC(=N)N)C(=O)N[C@@H](C)C(=O)N[C@@H](C)C(=O)N[C@@H](CCC(N)=O)C(=O)N[C@@H](CC(=O)O)C(=O)N[C@@H](Cc1ccccc1)C(=O)N[C@H](C(=O)N[C@@H](CCC(=O)O)C(=O)N[C@@H](Cc1c[nH]c2ccccc12)C(=O)N[C@@H](CC(C)C)C(=O)N[C@@H](CCCCN)C(=O)N[C@@H](CC(N)=O)C(=O)NCC(=O)NCC(=O)N1CCC[C@H]1C(=O)N[C@@H](CO)C(=O)N[C@@H](CO)C(=O)NCC(=O)N[C@@H](C)C(=O)N1CCC[C@H]1C(=O)N1CCC[C@H]1C(=O)N1CCC[C@H]1C(=O)N[C@@H](CO)C(N)=O)[C@@H](C)CC)C(=O)O) [SEQ ID NO: 13]	7.3	71	31.3
Y[Aib]EGTFTSDLSIQK([γGlu-Stearoyl])EKRAAQEFIEWLKAGGPSSGAPPPS-NH2 (N-terminus assumed; SMILES CCCCCCCCCCCCCCCCCC(=O)N[C@@H](CCC(=O)NCCCC[C@H](NC(=O)[C@H](CCC(N)=O)NC(=O)[C@@H](NC(=O)[C@H](CO)NC(=O)[C@H](CC(C)C)NC(=O)[C@H](CC(=O)O)NC(=O)[C@H](CO)NC(=O)[C@@H](NC(=O)[C@H](Cc1ccccc1)NC(=O)[C@@H](NC(=O)CNC(=O)[C@H](CCC(=O)O)NC(=O)C(C)(C)NC(=O)[C@@H](N)Cc1ccc(O)cc1)[C@@H](C)O)[C@@H](C)O)[C@@H](C)CC)C(=O)N[C@@H](CCC(=O)O)C(=O)N[C@@H](CCCCN)C(=O)N[C@@H](CCCNC(=N)N)C(=O)N[C@@H](C)C(=O)N[C@@H](C)C(=O)N[C@@H](CCC(N)=O)C(=O)N[C@@H](CCC(=O)O)C(=O)N[C@@H](Cc1ccccc1)C(=O)N[C@H](C(=O)N[C@@H](CCC(=O)O)C(=O)N[C@@H](Cc1c[nH]c2ccccc12)C(=O)N[C@@H](CC(C)C)C(=O)N[C@@H](CCCCN)C(=O)N[C@@H](C)C(=O)NCC(=O)NCC(=O)N1CCC[C@H]1C(=O)N[C@@H](CO)C(=O)N[C@@H](CO)C(=O)NCC(=O)N[C@@H](C)C(=O)N1CCC[C@H]1C(=O)N1CCC[C@H]1C(=O)N1CCC[C@H]1C(=O)N[C@@H](CO)C(N)=O)[C@@H](C)CC)C(=O)O) [SEQ ID NO: 14]	4.3	4.4	3760
Y[Aib]EGTFTSDLSIQK([γGlu-Palmitoyl])DKRAA[Aib]DFIEWLKAGGPSSGAPPPS-NH2 (N-terminus assumed; SMILES CCCCCCCCCCCCCCCC(=O)N[C@@H](CCC(=O)NCCCC[C@H](NC(=O)[C@H](CCC(N)=O)NC(=O)[C@@H](NC(=O)[C@H](CO)NC(=O)[C@H](CC(C)C)NC(=O)[C@H](CC(=O)O)NC(=O)[C@H](CO)NC(=O)[C@@H](NC(=O)[C@H](Cc1ccccc1)NC(=O)[C@@H](NC(=O)CNC(=O)[C@H](CCC(=O)O)NC(=O)C(C)(C)NC(=O)[C@@H](N)Cc1ccc(O)cc1)[C@@H](C)O)[C@@H](C)O)[C@@H](C)CC)C(=O)N[C@@H](CC(=O)O)C(=O)N[C@@H](CCCCN)C(=O)N[C@@H](CCCNC(=N)N)C(=O)N[C@@H](C)C(=O)N[C@@H](C)C(=O)NC(C)(C)C(=O)N[C@@H](CC(=O)O)C(=O)N[C@@H](Cc1ccccc1)C(=O)N[C@H](C(=O)N[C@@H](CCC(=O)O)C(=O)N[C@@H](Cc1c[nH]c2ccccc12)C(=O)N[C@@H](CC(C)C)C(=O)N[C@@H](CCCCN)C(=O)N[C@@H](C)C(=O)NCC(=O)NCC(=O)N1CCC[C@H]1C(=O)N[C@@H](CO)C(=O)N[C@@H](CO)C(=O)NCC(=O)N[C@@H](C)C(=O)N1CCC[C@H]1C(=O)N1CCC[C@H]1C(=O)N1CCC[C@H]1C(=O)N[C@@H](CO)C(N)=O)[C@@H](C)CC)C(=O)O) [SEQ ID NO: 11]	11.5	3.2	7220
Y[Aib]EGTFTSDLSIQK([GABA-Stearoyl])EKRAA[Aib]EFIEWLKNTGPSSGAPPPS-NH2 (N-terminus assumed; SMILES CCCCCCCCCCCCCCCCCC(=O)NCCCC(=O)NCCCC[C@H](NC(=O)[C@H](CCC(N)=O)NC(=O)[C@@H](NC(=O)[C@H](CO)NC(=O)[C@H](CC(C)C)NC(=O)[C@H](CC(=O)O)NC(=O)[C@H](CO)NC(=O)[C@@H](NC(=O)[C@H](Cc1ccccc1)NC(=O)[C@@H](NC(=O)CNC(=O)[C@H](CCC(=O)O)NC(=O)C(C)(C)NC(=O)[C@@H](N)Cc1ccc(O)cc1)[C@@H](C)O)[C@@H](C)O)[C@@H](C)CC)C(=O)N[C@@H](CCC(=O)O)C(=O)N[C@@H](CCCCN)C(=O)N[C@@H](CCCNC(=N)N)C(=O)N[C@@H](C)C(=O)N[C@@H](C)C(=O)NC(C)(C)C(=O)N[C@@H](CCC(=O)O)C(=O)N[C@@H](Cc1ccccc1)C(=O)N[C@H](C(=O)N[C@@H](CCC(=O)O)C(=O)N[C@@H](Cc1c[nH]c2ccccc12)C(=O)N[C@@H](CC(C)C)C(=O)N[C@@H](CCCCN)C(=O)N[C@@H](CC(N)=O)C(=O)N[C@H](C(=O)NCC(=O)N1CCC[C@H]1C(=O)N[C@@H](CO)C(=O)N[C@@H](CO)C(=O)NCC(=O)N[C@@H](C)C(=O)N1CCC[C@H]1C(=O)N1CCC[C@H]1C(=O)N1CCC[C@H]1C(=O)N[C@@H](CO)C(N)=O)[C@@H](C)O)[C@@H](C)CC) [SEQ ID NO: 17]	8.7	9.6	9740
Y[Aib]EGTFTSDLSIQK([γGlu-γGlu-Stearoyl])EKRAA[Aib]EFIEWLKNTGPSSGAPPPS-NH2 (N-terminus assumed; SMILES CCCCCCCCCCCCCCCCCC(=O)N[C@@H](CCC(=O)N[C@@H](CCC(=O)NCCCC[C@H](NC(=O)[C@H](CCC(N)=O)NC(=O)[C@@H](NC(=O)[C@H](CO)NC(=O)[C@H](CC(C)C)NC(=O)[C@H](CC(=O)O)NC(=O)[C@H](CO)NC(=O)[C@@H](NC(=O)[C@H](Cc1ccccc1)NC(=O)[C@@H](NC(=O)CNC(=O)[C@H](CCC(=O)O)NC(=O)C(C)(C)NC(=O)[C@@H](N)Cc1ccc(O)cc1)[C@@H](C)O)[C@@H](C)O)[C@@H](C)CC)C(=O)N[C@@H](CCC(=O)O)C(=O)N[C@@H](CCCCN)C(=O)N[C@@H](CCCNC(=N)N)C(=O)N[C@@H](C)C(=O)N[C@@H](C)C(=O)NC(C)(C)C(=O)N[C@@H](CCC(=O)O)C(=O)N[C@@H](Cc1ccccc1)C(=O)N[C@H](C(=O)N[C@@H](CCC(=O)O)C(=O)N[C@@H](Cc1c[nH]c2ccccc12)C(=O)N[C@@H](CC(C)C)C(=O)N[C@@H](CCCCN)C(=O)N[C@@H](CC(N)=O)C(=O)N[C@H](C(=O)NCC(=O)N1CCC[C@H]1C(=O)N[C@@H](CO)C(=O)N[C@@H](CO)C(=O)NCC(=O)N[C@@H](C)C(=O)N1CCC[C@H]1C(=O)N1CCC[C@H]1C(=O)N1CCC[C@H]1C(=O)N[C@@H](CO)C(N)=O)[C@@H](C)O)[C@@H](C)CC)C(=O)O)C(=O)O) [SEQ ID NO: 16]	4	5.1	2890
Y[Aib]EGTFTSDLSIQK([γGlu-Palmitoyl])DKRAAQDFIEWLKNGGPSSGAPPPS-NH2 (N-terminus assumed; SMILES CCCCCCCCCCCCCCCC(=O)N[C@@H](CCC(=O)NCCCC[C@H](NC(=O)[C@H](CCC(N)=O)NC(=O)[C@@H](NC(=O)[C@H](CO)NC(=O)[C@H](CC(C)C)NC(=O)[C@H](CC(=O)O)NC(=O)[C@H](CO)NC(=O)[C@@H](NC(=O)[C@H](Cc1ccccc1)NC(=O)[C@@H](NC(=O)CNC(=O)[C@H](CCC(=O)O)NC(=O)C(C)(C)NC(=O)[C@@H](N)Cc1ccc(O)cc1)[C@@H](C)O)[C@@H](C)O)[C@@H](C)CC)C(=O)N[C@@H](CC(=O)O)C(=O)N[C@@H](CCCCN)C(=O)N[C@@H](CCCNC(=N)N)C(=O)N[C@@H](C)C(=O)N[C@@H](C)C(=O)N[C@@H](CCC(N)=O)C(=O)N[C@@H](CC(=O)O)C(=O)N[C@@H](Cc1ccccc1)C(=O)N[C@H](C(=O)N[C@@H](CCC(=O)O)C(=O)N[C@@H](Cc1c[nH]c2ccccc12)C(=O)N[C@@H](CC(C)C)C(=O)N[C@@H](CCCCN)C(=O)N[C@@H](CC(N)=O)C(=O)NCC(=O)NCC(=O)N1CCC[C@H]1C(=O)N[C@@H](CO)C(=O)N[C@@H](CO)C(=O)NCC(=O)N[C@@H](C)C(=O)N1CCC[C@H]1C(=O)N1CCC[C@H]1C(=O)N1CCC[C@H]1C(=O)N[C@@H](CO)C(N)=O)[C@@H](C)CC)C(=O)O) [SEQ ID NO: 12]	12.7	8.9	1890
